# Literature values in paper PMC3124085.
# Target: HIV-1 Gag p6 p6 (Human immunodeficiency virus 1) (UniProt O93182)
# Sequence (O93182 450-500): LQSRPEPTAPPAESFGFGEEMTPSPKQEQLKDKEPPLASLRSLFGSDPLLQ
# Chain of TSG101 UEV (Q99816 1-148): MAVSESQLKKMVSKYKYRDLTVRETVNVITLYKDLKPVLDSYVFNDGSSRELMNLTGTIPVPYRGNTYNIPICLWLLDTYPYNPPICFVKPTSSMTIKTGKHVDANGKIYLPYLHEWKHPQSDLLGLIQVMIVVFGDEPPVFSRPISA
substance,measurement,value
TSG101 UEV (from UniProt Q99816),Kd,27 µM
